Measured values: PMC2729365 (Nature structural & molecular biology, 2009)

Tests used:
AUC [1] = target: the molecule itself; assay: AUC
AUC [2] = target: the molecule itself; assay: AUC; remark: listed apart in the source

B1: GluR6 amino terminal domain (GluR6 R1R2 ATD, residues 1-389) expressed in wild type HEK293 cells (domain or fragment)
chain: TTHVLRFGGIFEYVESGPMGAEELAFRFAVNTINRNRTLLPNTTLTYDTQKINLYDSFEASKKACDQLSLGVAAIFGPSHSSSANAVQSICNALGVPHIQTRWKHQVSDNKDSFYVSLYPDFSSLSRAILDLVQFFKWKTVTVVYDDSTGLIRLQELIKAPSRYNLRLKIRQLPADTKDAKPLLKEMKRGKEFHVIFDCSHEMAAGILKQALAMGMMTEYYHYIFTTLDLFALDVEPYRYSGVNMTGFRILNTENTQVSSIIEKWSMERLQAPPKPDSGLLDGFMTTDAALMYDAVHVVSVAVQQFPQMTVSSLQCNRHKPWRFGTRFMSLIKEAHWEGLTGRITFNKTNGLRTDFDLDVISLKEEGLEKIGTWDPASGLNMTESQKGK
modifications: N-linked glycans at five sites, non uniform (complex) glycosylation
For B1, the Kd (AUC [1]) was 11.3 µM and the “stoichiometry N” value (AUC [2]) was 2.
